From paper PMC4484057, “Daple is a novel non-receptor GEF required for trimeric G protein activation in Wnt signaling” (eLife, 2015) come the findings set out here.

The term IC50 denotes the concentration that inhibits the measured activity by half. The Kd is the constant that tells how readily two partners part at equilibrium. Read a high Kd as lower affinity.

The chains are these.
T1: GST-Daple-CT (human, UniProt Q9P219-1 1650-2028)
T1 construct: Daple (CCDC88C), human, C-terminal region; pGEX-4T construct; also called GST-Daple-CT WT; source: E. coli BL21 (DE3), purified (glutathione-Sepharose 4B)
T1 sequence (looked up): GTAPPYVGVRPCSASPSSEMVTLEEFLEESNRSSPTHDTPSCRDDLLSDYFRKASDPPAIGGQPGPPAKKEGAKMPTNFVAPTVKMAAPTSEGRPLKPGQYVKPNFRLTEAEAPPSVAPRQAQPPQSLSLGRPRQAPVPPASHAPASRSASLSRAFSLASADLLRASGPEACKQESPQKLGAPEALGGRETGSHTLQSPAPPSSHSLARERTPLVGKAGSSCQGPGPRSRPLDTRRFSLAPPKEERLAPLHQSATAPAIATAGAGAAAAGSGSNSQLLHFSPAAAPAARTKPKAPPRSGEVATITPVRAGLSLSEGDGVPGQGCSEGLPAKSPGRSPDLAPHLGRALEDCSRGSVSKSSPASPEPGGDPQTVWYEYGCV

B1: His-Daple-CT (aa 1650–2028) (domain or fragment, human, UniProt Q9P219-1 1650-2028, looked up)
chain: T1 sequence (looked up)
notes: Cloned from myc-Daple pcDNA 3.1 into pET28b between NdeI/EcoRI; also called His-Daple-CT WT; Daple-CT-WT; source: E. coli BL21 (DE3), purified (HisPur Cobalt Resin)
B2: GST-Gαi3 K248M (natural protein, rat, UniProt P08753 1-354, looked up)
chain: MGCTLSAEDKAAVERSKMIDRNLREDGEKAAKEVKLLLLGAGESGKSTIVKQMKIIHEDGYSEDECKQYKVVVYSNTIQSIIAIIRAMGRLKIDFGEAARADDARQLFVLAGSAEEGVMTSELAGVIKRLWRDGGVQACFSRSREYQLNDSASYYLNDLDRISQTNYIPTQQDVLRTRVKTTGIVETHFTFKELYFKMFDVGGQRSERKKWIHCFEGVTAIIFCVALSDYDLVLAEDEEMNRMHESMMLFDSICNNKWFTDTSIILFLNKKDLFEEKIKRSPLTICYPEYTGSNTYEEAAAYIQCQFEDLNRRKDTKEVYTHFTCATDTKNVQFVFDAVTDVIIKNNLKECGLY
notes: Gαi3, rat, K248M; source: E. coli BL21 (DE3), purified (glutathione-Sepharose 4B)
B3: GST-Gαi3 W258F (natural protein, rat, UniProt P08753 1-354, looked up)
chain: B2 chain with M248K, W258F
notes: Gαi3, rat, W258F; source: E. coli BL21 (DE3), purified (glutathione-Sepharose 4B)
B4: GST-Gαi2 (natural protein, rat, UniProt P04897 1-355, looked up)
chain: MGCTVSAEDKAAAERSKMIDKNLREDGEKAAREVKLLLLGAGESGKSTIVKQMKIIHEDGYSEEECRQYRAVVYSNTIQSIMAIVKAMGNLQIDFADPQRADDARQLFALSCAAEEQGMLPEDLSGVIRRLWADHGVQACFGRSREYQLNDSAAYYLNDLERIAQSDYIPTQQDVLRTRVKTTGIVETHFTFKDLHFKMFDVGGQRSERKKWIHCFEGVTAIIFCVALSAYDLVLAEDEEMNRMHESMKLFDSICNNKWFTDTSIILFLNKKDLFEEKITQSPLTICFPEYTGANKYDEAASYIQSKFEDLNKRKDTKEIYTHFTCATDTKNVQFVFDAVTDVIIKNNLKDCGLF
notes: Gαi2, rat, in pGEX-4T-1; also called GST-fused Gαi2; source: E. coli BL21 (DE3), purified (glutathione-Sepharose 4B)
B5: His-Gαi3 (natural protein, rat, UniProt P08753 1-354, looked up)
chain: B2 chain with M248K
notes: also called His-Gαi3-GDP; recombinant His-Gαi3; source: E. coli BL21 (DE3), purified (HisPur Cobalt Resin)
B6: GST-GIV-CT (aa 1671–1755) (domain or fragment, UniProt Q3V6T2 1671-1755, looked up)
chain: IKTGSPGSEVVTLQQFLEESNKLTSVQIKSSSQENLLDEVMKSLSVSSDFLGKDKPVSCGLARSVSGKTPGDFYDRRTTKPEFLR
notes: GIV (CCDC88A, Girdin), aa 1671–1755, holds the GBA motif; also called GST-GIV CT 1671–1755 aa; source: E. coli BL21 (DE3), purified (glutathione-Sepharose 4B)

For experiment [1], the target named is T2, GST-Gαi3 (rat, UniProt P08753 1-354).
T2 construct: Gαi3, rat, in pGEX-4T-1; Loaded with GDP, GDP + AlF4- or GTPγS as the assay says; also called GST-Gαi3 WT; source: E. coli BL21 (DE3), purified (glutathione-Sepharose 4B)
Briefly: pull-down; Gβγ displacement: GST-Gαi3·Gβγ preformed on glutathione-agarose beads (∼0.4 µM GST-Gαi3), 0.05–1 µM His-Daple-CT, 5 hr at 4°C, GDP; bound Gβγ by immunoblot fitted to a single-site competition curve. To be noted: both partners purified. In general terms: Immunoblotting shows a protein as a band on a membrane.

Experiment [2] has as its target B5. Briefly: cell-based or functional assay.
The target in experiment [3] is B1. Kind of experiment: pull-down; GST-Gα protein (5 µg) preloaded with GDP (inactive) on glutathione beads; purified His-Daple-CT (3 µg); 4 hr at 4°C; 50 mM Tris-HCl pH 7.4, 100 mM NaCl, 0.4% NP-40, 10 mM MgCl2, 5 mM EDTA, 30 µM GDP, 2 mM DTT; immunoblot. To be noted: both partners purified.
Experiment [4] has as its target T1, GST-Daple-CT. Kind of experiment: pull-down; GST-Daple-CT or GST-GIV-CT immobilised on glutathione-agarose beads; 0.01–3 µM purified His-Gαi3 (GDP-loaded); band intensities of immunoblots fitted to a single-site binding hyperbola; four independent experiments. To be noted: both partners purified.
For experiment [5], the target named is B5. Described as above. Particulars: both partners purified.

Positions count from the first letter of the chain named. Names may count otherwise.

His-Gαi3, sequence (P08753 whole entry, the tested form may be a part): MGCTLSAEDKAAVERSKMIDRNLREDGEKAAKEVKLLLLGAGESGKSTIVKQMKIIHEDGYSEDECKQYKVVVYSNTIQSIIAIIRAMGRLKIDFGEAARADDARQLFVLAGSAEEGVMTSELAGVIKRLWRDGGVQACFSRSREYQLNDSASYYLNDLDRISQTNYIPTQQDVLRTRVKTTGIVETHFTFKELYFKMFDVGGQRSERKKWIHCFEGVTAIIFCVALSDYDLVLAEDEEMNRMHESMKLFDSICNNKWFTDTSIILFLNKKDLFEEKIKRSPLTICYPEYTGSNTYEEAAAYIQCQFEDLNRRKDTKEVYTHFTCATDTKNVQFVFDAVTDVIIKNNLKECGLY

B1 displayed an IC50 in experiment [1] of 160 nM. Moreover, the “steady-state GTPase activity of His-Gαi3 with 2 µM His-Daple-CT, over the basal activity” value in experiment [2] was around 3 fold.
On to B2, for which the binding result in experiment [3] is recorded as “binds”.
On the same count and under the same terms, then B3, with “binds”; and B4, with “binds”.
For the molecule B5, binding in experiment [4] was characterised by a dissociation constant (Kd) of 110 nM.
On to B6, for which, in experiment [5], binding was put at a Kd of 240 nM.
